The values below come from PMC7919418.

Like-named read-outs stand apart in the source and are kept apart here.

Data set [1] concerns the target T1, SFiNX[wild type] (Panx-Nxf2-Nxt1-Ctp) (Drosophila melanogaster, UniProt Q9W2H9;Q9VV73;Q9V3H8;Q24117 263-541;541-841;1-133;1-89). Description: EMSA. A general note: Mobility shift assays separate free from complexed probe on a gel.
The target of data set [2] is T1, SFiNX[wild type] (Panx-Nxf2-Nxt1-Ctp). Description: EMSA. This is another data set of the same source.

T1 sequence (Q9W2H9 263-541, chain 1 of 3): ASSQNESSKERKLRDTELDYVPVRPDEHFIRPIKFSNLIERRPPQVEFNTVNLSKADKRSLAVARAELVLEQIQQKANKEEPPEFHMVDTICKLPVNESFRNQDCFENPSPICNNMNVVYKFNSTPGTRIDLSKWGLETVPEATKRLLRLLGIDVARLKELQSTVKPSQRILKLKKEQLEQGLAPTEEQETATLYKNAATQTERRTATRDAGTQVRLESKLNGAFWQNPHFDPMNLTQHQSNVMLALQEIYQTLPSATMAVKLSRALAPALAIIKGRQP
T1 sequence (Q9VV73 541-841, chain 2 of 3): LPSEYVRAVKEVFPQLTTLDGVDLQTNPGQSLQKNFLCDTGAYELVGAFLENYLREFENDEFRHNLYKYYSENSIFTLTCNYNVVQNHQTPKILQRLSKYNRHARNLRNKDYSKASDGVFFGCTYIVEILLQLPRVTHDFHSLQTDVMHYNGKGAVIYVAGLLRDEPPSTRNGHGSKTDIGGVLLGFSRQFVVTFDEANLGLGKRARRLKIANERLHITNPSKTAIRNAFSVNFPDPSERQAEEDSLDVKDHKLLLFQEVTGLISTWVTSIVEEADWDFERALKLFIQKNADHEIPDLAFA
T1 sequence (Q24117 whole entry, chain 4 of 3): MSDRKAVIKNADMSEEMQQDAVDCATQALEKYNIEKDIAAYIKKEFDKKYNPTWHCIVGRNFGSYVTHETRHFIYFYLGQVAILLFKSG

B1: 35-nt ssRNA (ssRNA)
RNA: CUCAUCUUGGUCGUACGCGGAAUAGUUUAAACUGU
As to B1, the binding result in data set [1] is “binds”.

B2: 35-bp dsRNA (dsRNA)
RNA 1: CUCAUCUUGGUCGUACGCGGAAUAGUUUAAACUGU
RNA 2: ACAGUUUAAACUAUUCCGCGUACGACCAAGAUGAG
As for B2, in data set [2], the binding result was “binds”.

B3: 25-bp dsDNA (dsDNA)
DNA 1: ACGCTCAAGTCAGAGGTGGCGAAAC
DNA 2: GTTTCGCCACCTCTGACTTGAGCGT
For the molecule B3, in data set [2], the binding result is “binds”.
